Laboratory results from PMC10243368.

Target: KRAS G12V (whole mutated KRAS gene linked to the LAMP3 signal peptide, as mRNA) peptide on (human)
Assay: B13.1 TILs stimulated with APCs loaded with KRAS G12V mRNA, sorted PI- CD3+ CD137+, 10x single-cell V(D)J sequencing; ex vivo sorted cells
Details: chains alpha TRAV23/DV6*01 TRAJ58*01 CDR3:beta TRBV5-6*01 TRBJ2-7*01 CDR3

clonotype frequency among the sorted CD3+ CD137+ cells: 32.8%
B1: B13.1.2 (peptide)
chain 1: CAASEETSGSRLTF
chain 2: CASSWNLQASYEQYF
